# Measurements published in patent US20230212549A1 (3B PHARMACEUTICALS, published 2023).
# Numbered stars: 1 amine (or outer) side, 2 acyl side, 3 side chain; on linkers, the order of the positions; unused ones are H or OH. Bridge positions count the residues as written; N and C are the ends. Square brackets hold non-standard residues; d marks the D form. Primed or numbered codes have the meaning given here. * marks the point of attachment. tMeBn(DOTA-PP) = 1,3,5-trimethylbenzylidene, two thioethers to Cys, third CH2 bound to one N of piperazine whose other N bears DOTA, O=C(O)CN1CCN(CC(=O)O)CCN(CC(=O)N2CCN(Cc3cc(C[*:1])cc(C[*:2])c3)CC2)CCN(CC(=O)O)CC1; Ttds″ = 1,13-diamino-4,7,10-trioxatridecan-succinamic acid spacer, O=C(CCC(=O)[*:2])NCCCOCCOCCOCCCN[*:1]; TBMB(SCH2CH2NH-DOTA) = O=C(O)CN1CCN(CC(=O)O)CCN(CC(=O)NCCSCc2cc(C[*:1])cc(C[*:2])c2)CCN(CC(=O)O)CC1; DOTA = O=C(O)CN1CCN(CC(=O)O)CCN(CC(=O)*)CCN(CC(=O)O)CC1; mXylylene = c1cc(C[*:1])cc(C[*:2])c1; 2Lut = 2,6-lutidylidene; Hexanoyl = CCCCCC(=O)*; GABA = NCCCC(=O)O
# B1: Hex-[Cys(3MeBn)-Pro-Pro-Thr-Glu-Phe-Cys]-Asp-His-Phe-Arg-Asp-Ttds-Lys(DOTA)-NH2 (peptide)
# peptide: Hexanoyl-CPPTEFCDHFRD[Ttds″]K(DOTA)-NH2
# modifications: linker 1-7 via mXylylene
# SMILES: CCCCCC(=O)N[C@H]1CSCc2cccc(c2)CSC[C@@H](C(=O)N[C@@H](CC(=O)O)C(=O)N[C@@H](Cc2c[nH]cn2)C(=O)N[C@@H](Cc2ccccc2)C(=O)N[C@@H](CCCNC(=N)N)C(=O)N[C@@H](CC(=O)O)C(=O)NCCCOCCOCCOCCCNC(=O)CCC(=O)N[C@@H](CCCCNC(=O)CN2CCN(CC(=O)O)CCN(CC(=O)O)CCN(CC(=O)O)CC2)C(N)=O)NC(=O)[C@H](Cc2ccccc2)NC(=O)[C@H](CCC(=O)O)NC(=O)[C@H]([C@@H](C)O)NC(=O)[C@@H]2CCCN2C(=O)[C@@H]2CCCN2C1=O
# B2: Hex-[Cys(tMeBn(DOTA-AET))-Pro-Pro-Thr-Gln-Phe-Cys]-Asp-NH2 (peptide)
# peptide: Hexanoyl-CPPTQFCD-NH2
# modifications: linker 1-7 via TBMB(SCH2CH2NH-DOTA)
# SMILES: CCCCCC(=O)N[C@H]1CSCc2cc(CSCCNC(=O)CN3CCN(CC(=O)O)CCN(CC(=O)O)CCN(CC(=O)O)CC3)cc(c2)CSC[C@@H](C(=O)N[C@@H](CC(=O)O)C(N)=O)NC(=O)[C@H](Cc2ccccc2)NC(=O)[C@H](CCC(N)=O)NC(=O)[C@H]([C@@H](C)O)NC(=O)[C@@H]2CCCN2C(=O)[C@@H]2CCCN2C1=O
# notes: also called 3BP-3426
# B3: Hex-[Cys(tMeBn(DOTA-PP))-Pro-Pro-Thr-Gln-Phe-Cys]-Asp-NH2 (peptide)
# peptide: Hexanoyl-CPPTQFCD-NH2
# modifications: linker 1-7 via tMeBn(DOTA-PP)
# SMILES: CCCCCC(=O)N[C@H]1CSCc2cc(cc(CN3CCN(C(=O)CN4CCN(CC(=O)O)CCN(CC(=O)O)CCN(CC(=O)O)CC4)CC3)c2)CSC[C@@H](C(=O)N[C@@H](CC(=O)O)C(N)=O)NC(=O)[C@H](Cc2ccccc2)NC(=O)[C@H](CCC(N)=O)NC(=O)[C@H]([C@@H](C)O)NC(=O)[C@@H]2CCCN2C(=O)[C@@H]2CCCN2C1=O
# B4: Hex-[Cys(3MeBn)-Pro-Pro-Thr-Glu-Phe-Cys]-Asp-Gab-Arg-NH2 (peptide)
# peptide: Hexanoyl-CPPTEFCD[GABA]R-NH2
# modifications: linker 1-7 via mXylylene
# SMILES: CCCCCC(=O)N[C@H]1CSCc2cccc(c2)CSC[C@@H](C(=O)N[C@@H](CC(=O)O)C(=O)NCCCC(=O)N[C@@H](CCCNC(=N)N)C(N)=O)NC(=O)[C@H](Cc2ccccc2)NC(=O)[C@H](CCC(=O)O)NC(=O)[C@H]([C@@H](C)O)NC(=O)[C@@H]2CCCN2C(=O)[C@@H]2CCCN2C1=O
# notes: also called 3BP-3300
# B5: Hex-[Cys(3MeBn)-Pro-Pro-Thr-Gln-Phe-Cys]-Asp-Ttds-Lys(DOTA)-NH2 (peptide)
# peptide: Hexanoyl-CPPTQFCD[Ttds″]K(DOTA)-NH2
# modifications: linker 1-7 via mXylylene
# SMILES: CCCCCC(=O)N[C@H]1CSCc2cccc(c2)CSC[C@@H](C(=O)N[C@@H](CC(=O)O)C(=O)NCCCOCCOCCOCCCNC(=O)CCC(=O)N[C@@H](CCCCNC(=O)CN2CCN(CC(=O)O)CCN(CC(=O)O)CCN(CC(=O)O)CC2)C(N)=O)NC(=O)[C@H](Cc2ccccc2)NC(=O)[C@H](CCC(N)=O)NC(=O)[C@H]([C@@H](C)O)NC(=O)[C@@H]2CCCN2C(=O)[C@@H]2CCCN2C1=O
# notes: also called 3BP-3395
# B6: Hex-[Cys(3MeBn)-Pro-Pro-Thr-Glu-Phe-Cys]-Asp-Ttds-Lys(DOTA)-NH2 (peptide)
# peptide: Hexanoyl-CPPTEFCD[Ttds″]K(DOTA)-NH2
# modifications: linker 1-7 via mXylylene
# SMILES: CCCCCC(=O)N[C@H]1CSCc2cccc(c2)CSC[C@@H](C(=O)N[C@@H](CC(=O)O)C(=O)NCCCOCCOCCOCCCNC(=O)CCC(=O)N[C@@H](CCCCNC(=O)CN2CCN(CC(=O)O)CCN(CC(=O)O)CCN(CC(=O)O)CC2)C(N)=O)NC(=O)[C@H](Cc2ccccc2)NC(=O)[C@H](CCC(=O)O)NC(=O)[C@H]([C@@H](C)O)NC(=O)[C@@H]2CCCN2C(=O)[C@@H]2CCCN2C1=O
# notes: also called 3BP-3396
# B7: Hex-[Cys(3MeBn)-Pro-Pro-Thr-Gln-Phe-Cys]-Asp-NH2 (peptide)
# peptide: Hexanoyl-CPPTQFCD-NH2
# modifications: linker 1-7 via mXylylene
# SMILES: CCCCCC(=O)N[C@H]1CSCc2cccc(c2)CSC[C@@H](C(=O)N[C@@H](CC(=O)O)C(N)=O)NC(=O)[C@H](Cc2ccccc2)NC(=O)[C@H](CCC(N)=O)NC(=O)[C@H]([C@@H](C)O)NC(=O)[C@@H]2CCCN2C(=O)[C@@H]2CCCN2C1=O
# Biological target: T1, fibroblast activation protein (FAP) on FAP-expressing human WI-38 fibroblasts (human, UniProt Q12884 1-760)
# T1 construct: also called human FAP
# Experiment: competitive FACS, WI-38 cells, vs Cy5 tracer m3; A = pIC50 >8.0
row,pIC50 Category (FACS) [pIC50],Binder
1,> 8,"Hexanoyl-CPPTQFCD-NH2 (linker 1-7 via tMeBn(InDOTA-PP); also: indium complex of DOTA, also called 3BP-3590) [Hex-[Cys(tMeBn(InDOTA-PP))-Pro-Pro-Thr-Gln-Phe-Cys]-Asp-NH2]"
2,> 8,B1
3,> 8,B2
4,> 8,B3
5,> 8,"Hexanoyl-CPPTQFCD-NH2 (linker 1-7 via tMeBn(LuDOTA-PP); also: lutetium complex of DOTA, also called 3BP-3591) [Hex-[Cys(tMeBn(LuDOTA-PP))-Pro-Pro-Thr-Gln-Phe-Cys]-Asp-NH2]"
6,> 8,B4
7,> 8,B5
8,> 8,B6
9,> 8,"Hexanoyl-CPPTQFCD-NH2 (linker 1-7 via 2Lut, also called 3BP-3518) [Hex-[Cys(2Lut)-Pro-Pro-Thr-Gln-Phe-Cys]-Asp-NH2]"
10,> 8,B7

# Biological target: Recombinant human FAP (R&D systems, #3715-SE) (human, UniProt Q12884 26-760)
# Experiment: cell-based or functional assay
row,pIC50 Category (Activity) [pIC50],Binder
1,> 8,"Hexanoyl-CPPTQFCD-NH2 (linker 1-7 via tMeBn(InDOTA-PP); also: indium complex of DOTA, also called 3BP-3590) [Hex-[Cys(tMeBn(InDOTA-PP))-Pro-Pro-Thr-Gln-Phe-Cys]-Asp-NH2]"
2,> 8,B1
3,> 8,B2
4,> 8,B3
5,> 8,"Hexanoyl-CPPTQFCD-NH2 (linker 1-7 via tMeBn(LuDOTA-PP); also: lutetium complex of DOTA, also called 3BP-3591) [Hex-[Cys(tMeBn(LuDOTA-PP))-Pro-Pro-Thr-Gln-Phe-Cys]-Asp-NH2]"
6,> 8,B4
7,> 8,B5
8,> 8,B6
9,> 8,"Hexanoyl-CPPTQFCD-NH2 (linker 1-7 via 2Lut, also called 3BP-3518) [Hex-[Cys(2Lut)-Pro-Pro-Thr-Gln-Phe-Cys]-Asp-NH2]"
10,> 8,B7
